Measured values reported in patent US20190119362A1.

Key:
[1] = biological target: aTNFa-Fab (Fab fragment of Infliximab) (Chimeric antibody/IgG1κ); assay: column breakthrough, 1 mg/mL aTNFa-Fab, quasi-static binding capacity at 55% breakthrough
[2] = biological target: aIgE-Fab (Fab fragment of Omalizumab) (Humanized antibody/IgG1κ); assay: ratio of 55% DBC for aIgE-Fab after against before 5 cycles of 50 mM NaOH
[3] = biological target: aIgE-Fab (Fab fragment of Omalizumab) (Humanized antibody/IgG1κ); assay: column breakthrough, 1 mg/mL aIgE-Fab, after 5 cycles of 50 mM NaOH for 30 minutes
[4] = biological target: aIgE-Fab (Fab fragment of Omalizumab) (Humanized antibody/IgG1κ); assay: column breakthrough, 1 mg/mL aIgE-Fab, 0.33 mL/min

Row | 55% DBC [1] [mg/mL-gel] | binding capability maintained after alkaline treatment [2] [%] | 55% DBC after the alkaline washing [3] [mg/mL] | 55% DBC before the alkaline washing [4] [mg/mL] | Substance
1 | 4.8 | – | – | – | commercially available Protein L carrier (HiTrap Protein L, GE Healthcare Bioscience)
2 | – | 92.8 | 21.9 | 23.6 | LB5t-Wild.4d (tetramer of B5 domain of PpL 312), immobilized on agarose carrier
